Measurements reported in article PMC7395460, “Structural mechanism of helicase loading onto replication origin DNA by ORC-Cdc6” (Proceedings of the National Academy of Sciences of the …, 2020).

Tests used:
Settings in all cases: both partners purified
Mcm7 = target: T1, Mcm7 (S. cerevisiae, UniProt P38132 1-845); experiment: cryo-EM structure; pre-insertion OCCM, 8.1 Å; same loading reaction (purified ORC, Cdc6, Cdt1, mutant Mcm2-7, ARS1 DNA, ATPγS); models docked as rigid bodies
T1 construct: Mcm7 of S. cerevisiae; Stood in the assay as a subunit of the mutant Mcm2-7; in the semi-attached OCCM only its WHD is resolved
T1 sequence (looked up): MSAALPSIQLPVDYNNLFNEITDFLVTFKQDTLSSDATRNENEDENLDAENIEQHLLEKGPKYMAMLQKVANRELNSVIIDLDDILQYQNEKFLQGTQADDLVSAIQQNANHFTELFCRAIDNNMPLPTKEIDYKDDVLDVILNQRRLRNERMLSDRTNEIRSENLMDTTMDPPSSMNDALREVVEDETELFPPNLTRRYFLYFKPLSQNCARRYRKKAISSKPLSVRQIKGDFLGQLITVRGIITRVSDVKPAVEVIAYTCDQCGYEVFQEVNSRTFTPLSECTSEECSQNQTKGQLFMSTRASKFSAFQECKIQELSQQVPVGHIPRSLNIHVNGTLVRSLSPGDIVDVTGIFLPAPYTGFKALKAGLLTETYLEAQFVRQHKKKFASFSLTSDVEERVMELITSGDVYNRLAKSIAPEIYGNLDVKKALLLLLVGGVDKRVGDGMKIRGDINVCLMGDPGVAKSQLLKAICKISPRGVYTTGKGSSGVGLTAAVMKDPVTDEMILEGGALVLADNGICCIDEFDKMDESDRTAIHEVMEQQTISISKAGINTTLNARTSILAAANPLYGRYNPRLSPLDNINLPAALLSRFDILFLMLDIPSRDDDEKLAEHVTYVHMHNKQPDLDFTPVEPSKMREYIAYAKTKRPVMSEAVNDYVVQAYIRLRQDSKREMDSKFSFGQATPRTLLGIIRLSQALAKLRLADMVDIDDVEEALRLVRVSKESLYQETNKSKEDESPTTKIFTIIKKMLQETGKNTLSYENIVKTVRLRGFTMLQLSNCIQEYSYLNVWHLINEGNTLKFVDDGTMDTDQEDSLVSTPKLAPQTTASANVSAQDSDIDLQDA

Mcm3 = target: T2, Mcm3 (S. cerevisiae, UniProt P24279 1-971); experiment: as above
T2 construct: Mcm3 of S. cerevisiae; Stood in the assay as a subunit of the mutant Mcm2-7; in the semi-attached OCCM only its WHD is resolved
T2 sequence (P24279 whole entry): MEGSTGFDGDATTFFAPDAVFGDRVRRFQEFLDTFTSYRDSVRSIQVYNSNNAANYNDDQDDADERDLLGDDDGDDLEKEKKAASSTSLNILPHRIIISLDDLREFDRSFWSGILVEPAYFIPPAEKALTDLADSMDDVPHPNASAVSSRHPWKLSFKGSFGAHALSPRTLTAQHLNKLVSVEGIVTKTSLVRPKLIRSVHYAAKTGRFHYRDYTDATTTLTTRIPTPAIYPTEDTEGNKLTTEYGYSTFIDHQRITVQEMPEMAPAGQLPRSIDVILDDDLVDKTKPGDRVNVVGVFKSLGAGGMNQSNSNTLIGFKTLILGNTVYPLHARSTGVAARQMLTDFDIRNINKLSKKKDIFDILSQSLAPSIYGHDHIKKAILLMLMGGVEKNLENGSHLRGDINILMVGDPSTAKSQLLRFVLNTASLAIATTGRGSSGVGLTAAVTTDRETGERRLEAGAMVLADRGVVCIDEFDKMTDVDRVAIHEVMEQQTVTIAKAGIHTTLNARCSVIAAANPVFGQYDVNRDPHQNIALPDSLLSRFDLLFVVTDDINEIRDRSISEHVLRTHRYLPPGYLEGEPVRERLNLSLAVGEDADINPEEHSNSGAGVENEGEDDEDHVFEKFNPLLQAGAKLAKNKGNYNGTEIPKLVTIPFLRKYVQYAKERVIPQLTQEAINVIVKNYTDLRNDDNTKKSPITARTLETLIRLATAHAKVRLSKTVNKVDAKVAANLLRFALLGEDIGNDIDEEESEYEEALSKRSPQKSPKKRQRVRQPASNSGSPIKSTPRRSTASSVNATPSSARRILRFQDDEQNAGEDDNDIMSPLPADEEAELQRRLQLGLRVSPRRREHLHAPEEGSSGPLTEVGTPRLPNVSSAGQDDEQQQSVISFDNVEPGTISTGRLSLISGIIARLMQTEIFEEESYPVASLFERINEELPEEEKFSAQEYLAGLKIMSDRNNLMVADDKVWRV

[1] = target: T3, origin recognition complex (Orc1-6; ORC) (S. cerevisiae, UniProt P54784 1-914; P32833 1-620; P54790 1-616; P54791 1-529; P50874 1-479; P38826 …); experiment: cryo-EM structure; semi-attached OCCM, 4.3 Å; assembled from purified ORC, Cdc6, Cdt1 and mutant Mcm2-7 on pUC19-ARS1 DNA beads with 3 mM ATPγS, 15 min at 24 °C, eluted with DNase I
T3 construct: Orc1, subunit of the S. cerevisiae origin recognition complex; Orc2, subunit of the S. cerevisiae origin recognition complex; Orc3, subunit of the S. cerevisiae origin recognition complex; Orc4, subunit of the S. cerevisiae origin recognition complex; Orc5, subunit of the S. cerevisiae origin recognition complex; Orc6, subunit of the S. cerevisiae origin recognition complex; copies: + + + + +

Orc1 = target: T4, Orc1 (S. cerevisiae, UniProt P54784 1-914); experiment: as above
T4 construct: Orc1, subunit of the S. cerevisiae origin recognition complex; Stood in the assay as a subunit of ORC
T4 sequence: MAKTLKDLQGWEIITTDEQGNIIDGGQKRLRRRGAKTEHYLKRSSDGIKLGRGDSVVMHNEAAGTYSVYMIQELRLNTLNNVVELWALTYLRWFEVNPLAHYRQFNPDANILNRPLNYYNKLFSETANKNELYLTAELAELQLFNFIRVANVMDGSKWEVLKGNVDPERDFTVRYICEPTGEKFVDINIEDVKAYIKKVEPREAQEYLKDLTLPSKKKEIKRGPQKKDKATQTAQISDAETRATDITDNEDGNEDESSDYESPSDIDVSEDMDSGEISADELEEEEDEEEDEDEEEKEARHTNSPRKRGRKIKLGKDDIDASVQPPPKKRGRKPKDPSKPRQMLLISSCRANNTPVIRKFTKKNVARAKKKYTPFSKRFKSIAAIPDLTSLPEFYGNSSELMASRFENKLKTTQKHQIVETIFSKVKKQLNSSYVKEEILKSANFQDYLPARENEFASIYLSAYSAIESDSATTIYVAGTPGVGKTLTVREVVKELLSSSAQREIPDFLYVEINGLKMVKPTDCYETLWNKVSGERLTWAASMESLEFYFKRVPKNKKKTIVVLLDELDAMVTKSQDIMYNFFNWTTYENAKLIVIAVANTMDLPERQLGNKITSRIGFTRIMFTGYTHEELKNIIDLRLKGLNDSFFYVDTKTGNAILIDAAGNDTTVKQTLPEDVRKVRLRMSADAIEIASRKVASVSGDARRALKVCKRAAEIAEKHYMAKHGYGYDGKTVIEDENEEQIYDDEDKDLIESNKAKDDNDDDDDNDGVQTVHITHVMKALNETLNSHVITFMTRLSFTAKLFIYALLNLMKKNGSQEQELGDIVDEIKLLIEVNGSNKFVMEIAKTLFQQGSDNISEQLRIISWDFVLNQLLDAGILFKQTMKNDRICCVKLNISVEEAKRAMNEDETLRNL

Measured: binding result

B1: Cdc6 (natural protein, S. cerevisiae)
chain: MSAIPITPTKRIRRNLFDDAPATPPRPLKRKKLQFTDVTPESSPEKLQFGSQSIFLRTKALLQKSSELVNLNSSDGALPARTAEYEQVMNFLAKAISEHRSDSLYITGPPGTGKTAQLDMIIRQKFQSLPLSLSTPRSKDVLRHTNPNLQNLSWFELPDGRLESVAVTSINCISLGEPSSIFQKIFDSFQDLNGPTLQIKNMQHLQKFLEPYHKKTTFVVVLDEMDRLLHANTSETQSVRTILELFLLAKLPTVSFVLIGMANSLDMKDRFLSRLNLDRGLLPQTIVFQPYTAEQMYEIVIQKMSSLPTIIFQPMAIKFAAKKCAGNTGDLRKLFDVLRGSIEIYELEKRFLLSPTRGSLNSAQVPLTPTTSPVKKSYPEPQGKIGLNYIAKVFSKFVNNNSTRTRIAKLNIQQKLILCTIIQSLKLNSDATIDESFDHYIKAITKTDTLAPLQRNEFLEICTILETCGLVSIKKTKCKGKTKRFVDKIDVDLDMREFYDEMTKISILKPFLH
notes: Cdc6 of S. cerevisiae
binds: all assays above
